# Measurements published in patent US10590193 (dated 2020).
# Numbering of substitutions follows the chain as printed.
# T1: human VEGF165 (human, UniProt P15692)
# T1 chain: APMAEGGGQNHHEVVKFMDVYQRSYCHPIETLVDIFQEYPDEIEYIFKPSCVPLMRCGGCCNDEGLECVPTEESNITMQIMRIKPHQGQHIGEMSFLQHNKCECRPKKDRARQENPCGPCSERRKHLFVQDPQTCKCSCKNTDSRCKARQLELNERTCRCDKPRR
# T2: mouse VEGF164 (mouse, UniProt Q00731)
# T2 chain: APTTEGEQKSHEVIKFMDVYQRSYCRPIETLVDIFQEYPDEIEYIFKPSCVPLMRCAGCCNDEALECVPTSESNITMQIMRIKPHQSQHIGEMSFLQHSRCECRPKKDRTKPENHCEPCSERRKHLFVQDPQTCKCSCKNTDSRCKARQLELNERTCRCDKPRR
# T3: human PlGF (human, UniProt P49763)
# T3 chain: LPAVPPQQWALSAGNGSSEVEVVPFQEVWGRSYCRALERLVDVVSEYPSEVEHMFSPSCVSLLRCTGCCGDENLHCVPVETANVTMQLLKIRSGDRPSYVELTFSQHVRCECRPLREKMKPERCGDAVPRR
# T4: human VEGF121 (human, UniProt P15692)
# T4 chain: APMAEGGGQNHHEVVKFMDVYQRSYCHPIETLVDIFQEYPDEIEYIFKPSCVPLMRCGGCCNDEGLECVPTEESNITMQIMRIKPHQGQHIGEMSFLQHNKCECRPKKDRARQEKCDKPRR
# T5: rat VEGF164 (rat, UniProt P16612)
# T5 chain: T2 chain with S10A, I14V, I75V
# T6: human VEGF110 (human, UniProt P15692)
# T6 chain: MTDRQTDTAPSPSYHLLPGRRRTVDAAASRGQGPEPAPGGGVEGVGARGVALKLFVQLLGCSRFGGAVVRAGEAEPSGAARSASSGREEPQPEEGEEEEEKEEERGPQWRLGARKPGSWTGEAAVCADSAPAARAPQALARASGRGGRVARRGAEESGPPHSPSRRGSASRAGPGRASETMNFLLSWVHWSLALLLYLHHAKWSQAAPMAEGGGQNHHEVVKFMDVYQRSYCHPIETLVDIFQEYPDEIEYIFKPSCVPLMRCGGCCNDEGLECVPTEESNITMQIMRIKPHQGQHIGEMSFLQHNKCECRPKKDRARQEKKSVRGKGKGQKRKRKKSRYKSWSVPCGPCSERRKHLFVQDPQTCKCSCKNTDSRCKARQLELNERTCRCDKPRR
# B1: 578minmax FW1.4_DHP (961) (antibody, V domains shown)
# VH: EVQLVESGGGSVQPGGSLRLSCTASGFSLTDYYYMTWVRQAPGKGLEWVGFIDPDDDPYYATWAKGRFTISRDTSKNTVYLQMNSLRAEDTATYYCAGGDHNSGWGLDIWGQGTTVTVSS
# VL: EIVMTQSPSTLSASVGDRVIITCQASEIIHSWLAWYQQKPGKAPKLLIYLASTLASGVPSRFSGSGSGAEFTLTISSLQPDDFATYYCQNVYLASTNGANFGQGTKLTVLG
# B2: 578minmax (903) (antibody, V domains shown)
# VH: B1 VH with S11L, T93V, T115L
# VL: B1 VL
# B3: 578min_max T84N_V89L (1008) (antibody, V domains shown)
# VH: B1 VH with S11L, T74N, V79L, T93V, T115L
# VL: B1 VL
# B4: 511-max (antibody, V domains shown)
# VH: EVQLVESGGGLVQPGGSLRLSCTVSGFSLNTYYMNWVRQAPGKGLEWVGIIAPDDTTYYASWAKSRSTISRDTSKNTVYLQMNSLRAEDTAVYYCARSGDTTAWGADIWGQGTLVTVSS
# VL: EIVMTQSPSTLSASVGDRVIITCQASQSINIWLSWYQQKPGKAPKLLIYRASTLASGVPSRFSGSGSGTEFTLTISSLQPDDFATYYCQANYAYSAGYGAAFGQGTKLTVLG
# B5: 511-min (antibody, V domains shown)
# VH: B4 VH with T23A, V24A, G49S, S67F, T73N, V78L, R97K
# VL: B4 VL with L33C, T69A
# B6: 509-maxII (antibody, V domains shown)
# VH: EVQLVESGGGLVQPGGSLRLSCTASGFSLSSYYMSWVRQAPGKGLEWVGILDYVGDTDYASWAKGRFTISKDASKNTVYLQMNSLRAEDTAVYYCARTDDSRGWGLNIWGQGTLVTVSS
# VL: EIVMTQSPSTLSASVGDRVIITCQASQNIRIWLSWYQQKPGKAPKLLIYKASTLESGVPSRFSGSGSGTEFTLTISSLQPDDFATYYCQNNAHYSTNGGTFGQGTKLTVLG
# B7: 509-max (antibody, V domains shown)
# VH: B6 VH with S35C, I50C
# VL: B6 VL
# B8: 435-min (antibody, V domains shown)
# VH: EVQLVESGGGLVQPGGSLRLSCAASGFSLNTNYWMCWVRQAPGKGLEWVSCMYTGSYNRAYYASWAKGRFTISRDNSKNTLYLQMNSLRAEDTAVYYCAKGSNWYSDLWGQGTLVTVSS
# VL: EIVMTQSPSTLSASVGDRVIITCQASQSIGSSLAWYQQKPGKAPKLLIYTAANLASGVPSRFSGSGSGAEFTLTISSLQPDDFATYYCQNFATSDTVTFGQGTKLTVLG
# B9: 375-min (antibody, V domains shown)
# VH: EVQLVESGGGLVQPGGSLRLSCAASGFSFTTTDYMCWVRQAPGKGLEWVSCILAGDGSTYYANWAKGRFTISRDNSKNTLYLQMNSLRAEDTAVYYCAKSDPASSWSFALWGQGTLVTVSS
# VL: EIVMTQSPSTLSASVGDRVIITCQASENINIWLSWYQQKPGKAPKLLIYQASKLASGVPSRFSGSGSGAEFTLTISSLQPDDFATYYCQNNYSYNRYGAPFGQGTKLTVLG
# B10: 610-max (antibody, V domains shown)
# VH: EVQLVESGGGLVQPGGSLRLSCTASGIDFSGAYYMGWVRQAPGKGLEWVGYIDYDGDRYYASWAKGRFTISKDTSKNTVYLQMNSLRAEDTAVYYCARSDYSSGWGTDIWGQGTLVTVSS
# VL: EIVMTQSPSTLSASVGDRVIITCQASQSISSWLSWYQQKPGKAPKLLIYQASTLASGVPSRFSGSGSGTEFTLTISSLQPDDFATYYCQNNYGFRSYGGAFGQGTKLTVLG
# B11: 610-min (antibody, V domains shown)
# VH: B10 VH with T23A, G50S, K72R, T74N, V79L, R98K
# VL: B10 VL with T69A
# B12: 578min_max T84N_V89L_DHP (1017) (antibody, V domains shown)
# VH: B1 VH with T74N, V79L
# VL: B1 VL
# Molecular target: T1, human VEGF165
# Assay: SPR, pH 5
row,Binder,Kd [nM]
1,B1,0.576
2,B2,0.625
3,B3,1.59

# Molecular target: T2, mouse VEGF164
# Assay: SPR, pH 5
row,Binder,Kd [nM]
1,B4,0.0613
2,B5,1.64
3,B6,1.73
4,B7,1.45

# Molecular target: T1, human VEGF165
# Assay: SPR, pH 5
# Remark: another data set of the same source
row,Binder,binding result
1,B8,no binding

# Molecular target: T1, human VEGF165
# Assay: SPR, pH 5
# Remark: another data set of the same source
row,Binder,Kd [nM]
1,B4,0.0667
2,B9,5.41
3,B5,2.53
4,B6,3.37
5,B7,1.21
6,B10,1.18
7,B11,10.6

# Molecular target: T3, human PlGF
# Assay: SPR, pH 5
row,Binder,binding result
1,B4,no binding
2,B5,no binding
3,B6,no binding
4,B7,no binding

# Molecular target: T2, mouse VEGF164
# Assay: SPR, pH 5
# Remark: another data set of the same source
row,Binder,Kd [nM]
1,B1,0.608
2,B2,0.567
3,B12,1.46
4,B3,1.53

# Molecular target: T4, human VEGF121
# Assay: SPR, pH 5
row,Binder,Kd [nM]
1,B4,0.214
2,B5,1.24
3,B6,1.37
4,B7,0.335

# Molecular target: T1, human VEGF165
# Assay: SPR, pH 7.4
row,Binder,binding result
1,B11,no binding

# Molecular target: T5, rat VEGF164
# Assay: SPR, pH 5
row,Binder,Kd [nM]
1,B1,0.845
2,B2,0.748
3,B12,1.82
4,B3,1.89

# Molecular target: T1, human VEGF165
# Assay: competition, VEGFR2 ELISA
row,Binder,EC50 [nM]
1,B4,0.822

# Molecular target: T1, human VEGF165
# Assay: SPR, pH 7.4
# Remark: another data set of the same source
row,Binder,koff [s⁻¹]
1,B9,3.86
2,B10,35.7

# Molecular target: T5, rat VEGF164
# Assay: SPR, pH 7.4
row,Binder,Kd [nM]
1,B2,0.0219

# Molecular target: T2, mouse VEGF164
# Assay: SPR, pH 7.4
row,Binder,Kd [nM]
1,B2,0.0273

# Molecular target: T1, human VEGF165
# Assay: SPR, pH 7.4
# Remark: another data set of the same source
row,Binder,Kd [nM]
1,B4,0.0856
2,B5,1.31
3,B6,2.61
4,B7,0.378
5,B8,28.9

# Molecular target: T5, rat VEGF164
# Assay: SPR, pH 5
# Remark: another data set of the same source
row,Binder,Kd [nM]
1,B4,0.106
2,B5,2.04
3,B6,1.81
4,B7,1.65

# Molecular target: T6, human VEGF110
# Assay: SPR, pH 5
row,Binder,Kd [nM]
1,B4,0.197
2,B5,1.45
3,B6,1.48
4,B7,0.363
